# According to US20040127419A1 (Amgen, published 2004):
# T1: mature human glial cell line-derived neurotrophic factor (hGDNF), CHO cell-expressed (human, UniProt P39905 78-211, glycosylated (N-linked sugar, about 4.5 kDa))
# T1 construct: The native protein is a disulfide-bonded homodimer (44 kDa on non-reducing gels); also called mature GDNF; 22 kDa band
# T1 chain: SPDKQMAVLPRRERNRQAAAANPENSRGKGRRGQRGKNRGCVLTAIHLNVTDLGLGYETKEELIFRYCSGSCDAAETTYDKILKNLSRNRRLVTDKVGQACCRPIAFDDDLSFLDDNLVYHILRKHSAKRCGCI
# Biological target: T1, mature human glial cell line-derived …
# Test: purification from CHO conditioned medium, Western blot and N-terminal sequencing; disulfide-bonded dimer
# Experimental: The following process describes the purification of CHO-expressed GDNF and a CHO-derived clipped GDNF homodimer, from one liter of conditioned media. Because of significant protease action in the CHO medium, clipping the chain at residue 31, the procedure may include the use of a protease inhibitor during purification.
# Serum free conditioned media was made 20 mM 2-[N-Morpholino] ethane sulfonate (MES), pH 6.0, by adding one fiftieth volume of 1 M MES, pH 6.0. Twenty five milliliters of SP Sepharose Big Bead resin (Pharmacia), equilibrated with 20 mM MES, pH 6.0, was added and stirred at 4° C. for one hour. The resin was collected by allowing it to settle and decanting off the conditioned media. The decanted media was filtered through a fritted disc filter to recover any unsettled resin. […] Protein was eluted with a 300 ml gradient from A buffer to 1.0 M NaCl, 20 mM MES, pH 6.0 (B buffer), at a flow rate of 0.2 column volumes/minute with absorbance monitored at 280 nm. […] The presence of GDNF in the fractions was detected by Western blotting analysis. […]
# Fractions containing GDNF from Step 2 were resolublized in one milliliter of 0.15 M NaCl, 10 mM Tris, pH 8.0, and applied to a 0.75×7.5 cm TSK-Gel 5WP high performance S column (Toso Haas). […] One minute fractions were collected with absorbance measured at 280 nm. […]
binder,measurement,value
"[Arg32-Ile134] truncated GDNF protein, CHO cell-derived (ligand, glycosylated (N-linked and O-linked sugars), It forms a disulfide-bonded homodimer (36 kDa) or a heterodimer with mature GDNF (40 kDa); A later purification also found a [Lys37-Ile134] form; also called clipped GDNF; 18 kDa band) RGQRGKNRGCVLTAIHLNVTDLGLGYETKEELIFRYCSGSCDAAETTYDKILKNLSRNRRLVTDKVGQACCRPIAFDDDLSFLDDNLVYHILRKHSAKRCGCI",binding result,binds
